Numbering of substitutions follows the chain as printed.
B1: unnamed (protein)
chain: NPYARGPNPTAASLEASAGPFTVRSFTVSRPSGYGAGTVYYPTNAGGTVGAIAIVPGYTARQSSIKWWGPRLASHGFVVITIDTNSTLDQPSSRSSQQMAALRQVASLNGTSSSPIYGKVDTARMGVMGWSMGGGGSLISAANNPSLKAAAPQAPWDSSTNFSSVTVPTLIFACENDSIAPVNSSALPIYDSMSRNAKQFLEINGGSHSAANSGNSNQALIGKKGVAWMKRFMDNDTRYSTFACENPNSTRVSDFRTANCS
B2: unnamed (protein)
chain: B1 chain with Y58A, A210C
B3: unnamed (protein)
chain: B1 chain with S185H, A210C
B4: unnamed (protein)
chain: B1 chain with I179A, A210C
B5: unnamed (protein)
chain: B1 chain with S131A, D177A, H208A, A210C
B6: unnamed (protein)
chain: B1 chain with Y58F, A210C
B7: unnamed (protein)
chain: B1 chain with C174A, A210C
B8: unnamed (protein)
chain: B1 chain with S209F, A210C
B9: unnamed (protein)
chain: B1 chain with M132A, A210C
B10: unnamed (protein)
chain: B1 chain with C174A
B11: unnamed (protein)
chain: B1 chain with Q153L, A210C
B12: unnamed (protein)
chain: B1 chain with W130H, A210C
B13: unnamed (protein)
chain: B1 chain with R94A, A210C
B14: unnamed (protein)
chain: MNFPRASRLMQAAVLGGLMAVSAAATAQTNPYARGPNPTAASLEASAGPFTVRSFTVSRPSGYGAGTVYYPTNAGGTVGAIAIVPGYTARQSSIKWWGPRLASHGFVVITIDTNSTLDQPSSRSSQQMAALRQVASLNGTSSSPIYGKVDTARMGVMGWSMGGGGSLISAANNPSLKAAAPQAPWDSSTNFSSVTVPTLIFACENDSIAPVASSALPIYDSMSRNAKQFLEINGGSHSCANSGNSNQALIGKKGVAWMKRFMDNDTRYSTFACENPNSTRVSDFRTANCS
B15: unnamed (protein)
chain: B14 chain with A180I, A212N
B16: unnamed (protein)
chain: B14 chain with A212N, H237A

These proteins were tested on PET (assay: Proxy for plastic degradation [Released monomer concentration (HPLC/LC-MS) (TPA)]). Conditions: pH 9.

Protein	Proxy for plastic degradation
B1	0 nM
B2	21 nM
B5	0 nM
B6	0 nM
B14	0 nM
B15	10.5 nM

What follows are proteins tested on PET (assay: Proxy for plastic degradation [Released monomer concentration (HPLC/LC-MS) (MHET)]). Conditions: pH 9.

Protein	Proxy for plastic degradation
B1	0 nM
B5	0 nM
B6	0 nM
B11	8 nM
B13	1 nM
B14	2 nM
B15	13.4 nM

The proteins below were run on BHET (assay: Proxy for plastic degradation [Released monomer concentration (HPLC/LC-MS) (MHET+TPA)]). Conditions: pH 7.5.

Protein	Proxy for plastic degradation
B1	0.22 µM
B2	1.09 µM
B3	0.45 µM
B4	0.54 µM
B6	0.54 µM
B7	0.26 µM
B9	0.57 µM
B11	1.26 µM
B13	0.6 µM
B14	0.42 µM
B15	0.31 µM
B16	0.03 µM

What follows are proteins tested on PET (assay: Proxy for plastic degradation [Released monomer concentration (HPLC/LC-MS) (TPA)]). Conditions: pH 9; part of the chain shown.

Protein	Proxy for plastic degradation
B8	3.5 nM
B10	0 nM
B12	20 nM

The proteins below were run on PET (assay: Proxy for plastic degradation [Released monomer concentration (HPLC/LC-MS) (MHET)]). Conditions: pH 9; part of the chain shown.

Protein	Proxy for plastic degradation
B8	4 nM
B10	0.5 nM
B12	20 nM

What follows are proteins tested on BHET (assay: Proxy for plastic degradation [Released monomer concentration (HPLC/LC-MS) (MHET+TPA)]). Conditions: pH 7.5; part of the chain shown.

Protein	Proxy for plastic degradation
B8	1.6 µM
B12	1.94 µM

Source: the PETadex activity labels (doi:10.1002/cbic.201800097)
